Experimental data as given in the DeepSol protein solubility set.

Test: soluble on expression in E. coli; label from the status in PepcDB or PDB records

Row | Sequence | soluble on expression in E. coli
1 | MGSDKIHHHHHHMENQEKPLSVDEEYDLWKSNVPLMYDFVSETRLTWPSLTVQWLPTPVQELDGGFIKQELIIGTHTSGEEENYLKFAEINLPKEILSNEDPQEEAGEEYQSSLPAPRSNIRITAKYEHEEEITRARYMPQDPNIVATINGQGTVFLYSRSEGLQSTLKFHKDNGYALSFSTLVKGRLLSGSDDHTVALWEVGSGGDPTKPVRTWNDLHSDIINDNKWHNFNKDLFGTVSEDSLLKINDVRANNTTIDTVKCPQPFNTLAFSHHSSNLLAAAGMDSYVYLYDLRNMKEPLHHMSGHEDAVNNLEFSTHVDGVVVSSGSDNRLMMWDLKQIGAEQTPDDAEDGVPELIMVHAGHRSSVNDFDLNPQIPWLVASAEEENILQVWKCSHSLPIVGGPPKVNKDIIS | not soluble
2 | MGSDKIHHHHHHMENYTHWFYLESYTFLFYSKNQYVIYNTLNSTYIDCSLYGKTINTVLSILHNTNKTYCVGIYEYQLRDSQFTEFIKKIRNTFSGDIIKNIRGIPPFISKPILRILHHPNNPKTKEYNLLGENALFHLHEVTFYLENQGFDLNPMYKDCYKQFLYPTYTEKQKLSHAKYLEIIEQLSICQIDKINIIPATIEKKELFSYLLSLSRQYSIKTQIILPYKKYNKEDLKQLLTNPQFSIMIMVHLPVDYEELNSYINLFNEYNITWSLIASNKNDVIFLSKNNLGKFTNVDYIPWYTGDNMDFFKEYIYNDFKDIIEQKNTKQHIFRKQILNDNLFGKLTIFPTGEVYSNVNFPTIGNIQDQKLSEIVYSEIENYFKPWFFTRDYVSCKNCVNKYLCPSISNYEIVANEYNMCYLNQ | not soluble
3 | MGSDKIHHHHHHMEPFSPLNWFRRSSSQASCRTALSSQPSLEAAVNEVAAALAGGSSADLALVFASTHYASDLQRLLPLLQRRLKATHWLGCAGGGVIGTTAKGNASELEKEPALSITMLQLPGAILKPFYLETQSLPDLDGPAQHWQEWVGADPFNARSMLLLVDPSSRSINDLISGLDYAYPTTTKLGGIAGPHNAPHGSLFFDDRVVMGAVGCSFGGDWNLEVVVAQGCKPIGPVFAIEQVQKNILLELSHENQRDSPMACLQRVLDDLSEEEREMVRHSLFLGIERRDLVLAGTGAPQPQGAFLVRNLIGVDPKNGAVAVAEQIRAGQNVQFQLREAEASRQESELLLGAARERNTSPPLFGLLMACLGRGHGLYGVPNGDVHIARKLMAELPIAGVFCNGEIGPAGGVGATHIHGYTACWGLLRHDPSSSEPAKSV | not soluble
4 | MGSDKIHHHHHHMEPKYTSFDKSAKTCIRQQVITEDLSWAHYQNAGERLYYQNDTQHTLSMYLDGGYETHRTDIKADYGAPSKFCLMPQGCQSHWQLGQPQQFMHLYFSDEHLKKLAVRVFDKDPRQVRLPELTFVDNPRLEALFRHQVAGLNWQTSDNHLMMEQVTDTVLVTLLQSSGFNLSVGPIKGGLAPKVAKAIKEFIYCHSHRQIYLSELAEIAQLSEYHFCRMFKCQFAMTPQEYLLQVRIEKVKQSLSHSTQSLTDIALNNGFANQSHMGRYFKKLSGMSPGEYQKHHQGR | not soluble
5 | MGSDKIHHHHHHMEQKICVIGFSGGQDSTTLAVWAKKRFKKVCLVGFDYAQKHSVELECAQKIASLLQLPYEIIPLDFLENITRSALFKNSNDLIGHSHAQNKDLPNSFVPNRNAIFITLLHSYAQKLGASNIALGVSQADFSGYPDCKEDFIKSIEHALNLGSNTAIKILTPLMFLNKAQEFQMAKDLGVLDLVIKETHTCYQGERKILHAYGYGCDKCPACQLRKKGFEEFQANKK | not soluble
6 | MGSDKIHHHHHHMEQLLHYVWKHKIFPLHELQTTTGLPVEVIDTGLPNSDSGPDFFNAKLKIGGTLWVGNVEIHTASSDWFRHGHDRDIAYDSVILHIVTEIDCEIYRSNGEPVPQLRLPCPEQVKEHYDELCRADIHPPCYSILETLPKLTIHSWLTALQTERFDQKNRTITRRLQRCNQHWEDAFFITLARNFGFGLNGDAFETWANLLSFRAIDKHRDDLTQVEAFFFGQAGLLEGESADDYFSWMQKEFRYLQHKFELPPVMNPSLWRFLRLRPGNFPHVRLAQLASLYYRERSLFSRVMEAETLKDLKHIFAGHTSAYWEEHFMFGKSSPRREKSIGAGAKELIIINTVIPFLYAYGLHKADERLCERAASLLEELKAENNYVTRMWSGAGIPVQTAADSQALLQLQKEYCDKKKCLYCRFGYEYLRHK | not soluble
7 | MGSDKIHHHHHHMEQRKRRLPPLKSLLFLESVVRNQSVTAAADELSITHSAVSKQLSQLEVWIGQPLFLEKRKGMIPTAEIGRVAAVLGNAFDEIQDALDELHPKRAAKPPVLRVIAPATLAMRWLIPKLGEFHTSAGETDVMVRPTHTPDNWLEMEFDIAIRRGGLIPPQFLPQSLFAETLSLVATARVAESYRMGQGDQLSQIGLIDVSTRHGELMNWLKLAGLPVAMARQATKLPHFYIALDAMFAGRGALVVPTYLIEDQLSRGELVELFPQSRIQGPSYQVFVNPASGAGNLAKGFVDWIKRAIPSVAQYAETR | not soluble
8 | MGSDKIHHHHHHMERIEAGMSVMTLKKQTYRVIAVINQGQELLVRAHEPETADIEIIPVTTVVQVTEQNSTGDAAVALDTVTVVGERYVDDIVATLTTLRVGMAVLLQRESGNQYDDNAISVWTLQHAKLGYIARYQNQPYATLMDQGQRLYGIVTVLDQQKQHLELMLWRTTAVPSPIEALQIRQRLAKPRTNLGAVPTHSLQTPLGTIVMMCNGHPIKYQQVPLSPWLTPADELHVTKRYLLTPDWSQVPPDSLITCQVTAKADVVQRWQNEHISAAVLTNASSFYVVGISAQTKTGLNDNLVDDAAQPAVIYRVGQVSAHMQAGFMVSWAPFGDPRVQPALKLALHFSSQPLVPYHPVTPSRTNATFTQQELAALLVSALPNYQGGQRLEPSVTTITVEKLRQTLGDQTYHALANYQRHVQLVAGSTEGVNETLLQALIHAVTYHELTTMHYYQPTVGMVDQVIYPIQLFSTTTKDEDDAQLVGCLALYNYETFEIQQVPLTAIARIAIIADPEHPQTTPETESPDWLRIFLHGWNDDF | not soluble
9 | MGSDKIHHHHHHMESFNEYHIDPKQFPFLKNFQDNWQVIRDEYTSFINNASNEELKFTYDVLGPKSQTIKTKGKSKYSAFGILFQGMFIEKYIQAHQIKYPDYGPDEASKKALVLREKYFTNLANVIKDVNLIEDDIIRNVYYGTFHPGLDIKLHVNYNPHTNRGYLGLIVPEGDVAMKICHDQLYWHEGKFLVLDHSYPHCPHNYTSYDRTVLVVDFFKPDKPRDEVIEFEKEQVTQRMQDNPYSLGVFGKSDKAKEEDFIKYGLAHQLEWDKALI | not soluble
10 | MGSDKIHHHHHHMESKSAVQLYLELLKKTILFEIWLEYEAYLPASLHISKELEFEPVTVPLPLFIKQYAENHNLKIVKPNVSKSERHDGMDWPRAAHSMIGRERMNQLQEAMETVVRENIEGDFIETGVWRGGSCIFMNGFLQANNITDRNVWVADSFEGLPAPNLEQYPKDYGDYLHTFDYLRVSLEQVQENFKKYDLLNDQVKFLKGWFKDTLPTAPIAAIAIARLDGDMYESTMDGLVNLYDKVSKGGYIIIDDYGLPPCAEAVTDFRNHRNLKAPITKIDVFGVYWRKE | not soluble
11 | MGSDKIHHHHHHMETAAELKTRLIAQAKAEGFVSVRLCRPWDVPEVPERLRAFLEAGYHGQMKWMAERINWRENPAALWPEARSVIMLAESYTPDEDPMAVVGLPDRAAISVYARGKDYHDLVKKRLKRLARWLIEEAPDEAQVKVFVDTAPVPEKALGQASGLGWQGKHTNLVSRDWGNWAFLGSIFTTLDLPVDAPEPDRCGSCRACLTACPTDAFPAPYQLDARRCISYLTIEHKGPIEEELRTKLGNRIYGCDDCLAACPWNKFAVEASDMRYAAREGTIAPPLAELSQLDDAAFRARFSGSPIKRIGRDRFVRNVLYAIGNSGDAGLHVFAQALCDDPDPTVAEAARWAAARLP | not soluble
12 | MGSDKIHHHHHHMETIETVQRFLEHMAWYATPVPASAISFLAAGEYNENWRIRHEGRDEVLRVNHGSQLRFADQIGYEYAVLRAVHPSGVTPRALRVKSRPRHLSGGALLMEYLPGRPLDYRTDLEAAAHTFAAVHSVVVPRGCPLLRQPDPVADIAADGLRLIHRFPDHPRTDVRDALLRYHERVVRLGEDTRALFEGERQVIANTEVNSGNFLVHDGVARLVDWEKAVVTPRYQDLGHFLAPTTTLWKTDTVLDEADRRRFLAAYRDALTRLAGRETVADCHFDTTDTAEGVTHEAAFHTTAPDAPGGQPHGDMAPDVPDLDALAVRTDVLVRAVLLRGLAWCYMAWQEYATDRRPLAHPDTLRTIERYLAEVSWFLR | not soluble
13 | MGSDKIHHHHHHMETLLKISGVDKSFPGVKALNNACLSVYAGRVMALMGENGAGKSTLMKVLTGIYSKDAGTIEYLNRSVNFNGPKASQEAGISIIHQELNLVGNLTIAENIFLGREFKTSWGAINWQKMHQEADKLLARLGVTHSSKQLCAELSIGEQQMVEIAKALSFESKVIIMDEPTDALTDTETEALFNVIRELKAENRGIVYISHRLKEIFQICDDVTVLRDGQFIGERVMAEITEDDLIEMMVGRRLDEQYPHLSQEKGECVLDVKHVSGSGIDDVSFKLHAGEIVGVSGLMGAGRTELGKLLYGALPKTAGKVRLKNQEIENRSPQDGLDNGIVYISEDRKGDGLVLGMSVKENMSLTSLDHFSQKGGIRHQAEKMAVDDFILMFNIKTPNRDQQVGLLSGGNQQKVAIARGLMTRPNVLILDEPTRGVDVGAKKEIYQLINEFKKEGLSILMISSDMPEVLGMSDRVLVMREGKISAEFSREEATQEKLLAAAIGK | not soluble
14 | MGSDKIHHHHHHMETRRDERIGQLLQALKRSDKLHLKEAATLLGVSEMTIRRDLNHKSAPVVLLGGYIVLEPRSASHYLLSDQKSRLVEEKRRAAQLAAGLVQAHQTVFIDCGTTTPWIIEAIDNDLPFTAVCYSLNTFLALQDKPHCRAILSGGEFHASNAIFKPLDFHETLNNICPDIAFYSAAGVHTSKGATCFNLEELPVKHWAMTMAQCHVLVVDHSKFGKVRPARMGELSRFDTIISDRRPDEAFVAYAKAQQITLMY | not soluble
15 | MGSDKIHHHHHHMEWIDRFIELLFYGEKEEAYKLKFDHFPRRLYKYEVIDEKRLLALKNNKIWFANPDKLNDPFDSCGVFFDKKVLCNYTNKKSIDEYIDGLKRNIKVCCFSEELNSMPMWAHYANNHTGICIEYDFSKLNYMSEFSKYIFPIRYETEKYDITKFLERIFKEEAEERMYLLFFLMQIKHVSWSYEKEWRIILKAYEDKNEGIVCPIKPEGIYLGLNCSEENKEKLKRIVVENIKCPIYEIEKTEGKLFEFKTKNVSEKNYK | not soluble
16 | MGSDKIHHHHHHMEYEIVIGLEVHAELATKTKMYCGCTAEFGGQPNTHVCPVCMGLPGALPHINKRAVDYGIKAGLALNCSITHIGRMDRKHIFYPDNSRNYQITQDELPLCTNGYIEIELEDGSKKKIGVERIHIEEDAGKLLHTNAGTLVDFNRCGVPLAEIVSKPDMRSPREAVTYLEELKSILSCVGVSDCKMEEGSLRCDANISVMKKGAKEFGVRTEIKNMNSFKAVEKALNYEYERHIKAIESGEKLTQETRRWDDAKNETAPMRSKEEANDYRYFPEGDLVTLNIDDEWIESIRKTIPELPYQKRERFIKEFGIPKYDASVLTLTMSMADFFEKTAKISGDAKSASNWLMGDISKIMKENYVWIEDLKFTPEQLSELIKLINEGTVSNAIGKKVIIKMFETGKSPKNIIEEEGLIQNSNEDEILNIVKEVLSENEKSIEDYKNGKNRVVGFLIGLVMKKTKGKANPKIVNKLMIDELNKQ | not soluble
